Data taken from the supplement of paper PMC7125110.
± gives the standard error. For part of these data: Fewer inactive variants are shown than the library holds.

B1: glmS ribozyme (parent)
chain: AUAAAAGCGCCAGAACUACAGAAAUGUAGUUGACGAGGAGGAGGUUUAUCGAAUUUUCGGCGGAUGCCUCCAAA

Experiments:
Conditions in all cases: with glucosamine-6-phosphate
[1] = variants of: B1; experiment: kcat; higher = faster cleavage; RNA array
Procedure, shortened: (§1)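 Barcoded ribozyme variants on sequenced MiSeq chips were transcribed in situ by E. coli RNA polymerase and followed at 37 °C through a hybridised Cy3 probe. Glucosamine-6-phosphate at 40 μM to 10 mM in HEPES/KCl/Mg(OAc)2 buffer was flowed in, and tiles were imaged over ~14 h. Signals were normalised to baseline and to non-cleaving reference variants, and per-tile medians were fit to one- or two-exponential decays to give kobs. Weighted Michaelis–Menten fits across concentrations gave kcat and KM.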

[2] = variants of: B1; experiment: KM; higher = weaker cofactor use; RNA array
Procedure, shortened: as §1

[3] = variants of: B1; experiment: self-cleavage kobs at 640 uM GlcN6P; higher = faster cleavage; RNA array
Procedure, shortened: as §1

[4] = variants of: B1; experiment: self-cleavage kobs at 2500 uM GlcN6P; higher = faster cleavage; RNA array
Procedure, shortened: as §1

[5] = variants of: B1; experiment: self-cleavage kobs at 10000 uM GlcN6P; higher = faster cleavage; RNA array
Procedure, shortened: as §1

[6] = variants of: B1; experiment: self-cleavage kobs at 40 uM GlcN6P; higher = faster cleavage; RNA array
Procedure, shortened: as §1

[7] = variants of: B1; experiment: self-cleavage kobs at 160 uM GlcN6P; higher = faster cleavage; RNA array
Procedure, shortened: as §1

| Variant | kcat [1] | KM [2] | self-cleavage kobs at 640 uM GlcN6P [3] | self-cleavage kobs at 2500 uM GlcN6P [4] | self-cleavage kobs at 10000 uM GlcN6P [5] | self-cleavage kobs at 40 uM GlcN6P [6] | self-cleavage kobs at 160 uM GlcN6P [7] |
| --- | --- | --- | --- | --- | --- | --- | --- |
| A12C U69A | 0.000833 ± 0.00013 s⁻¹ | 4330 ± 1100 µM | 0.000117 ± 2.1e-05 s⁻¹ | 0.00027 ± 4.6e-05 s⁻¹ | 0.000614 ± 9.4e-05 s⁻¹ |  |  |
| G9U U69G | 1.33e-05 ± 5.4e-06 s⁻¹ |  |  | < 1e-05 s⁻¹ | < 1e-05 s⁻¹ |  |  |
| A15C G41A | 0.000104 ± 4.7e-06 s⁻¹ | 744 ± 120 µM | 4.65e-05 ± 1.2e-05 s⁻¹ | 8.56e-05 ± 1.8e-05 s⁻¹ | 9.45e-05 ± 1.5e-05 s⁻¹ |  |  |
| A39G C50U | 0.000157 ± 2.6e-05 s⁻¹ | 3430 ± 1200 µM |  | 6.91e-05 ± 1.4e-05 s⁻¹ | 0.000115 ± 2.5e-05 s⁻¹ |  |  |
| U30G C70A | 6.7e-05 ± 4.4e-06 s⁻¹ | 410 ± 130 µM | 3.81e-05 ± 9.7e-06 s⁻¹ | 6.45e-05 ± 9.7e-06 s⁻¹ | 6.09e-05 ± 8.7e-06 s⁻¹ |  |  |
| C16U C58G | 0.000176 ± 1.3e-05 s⁻¹ | 1730 ± 350 µM | 4.29e-05 ± 9.1e-06 s⁻¹ | 0.000117 ± 1.6e-05 s⁻¹ | 0.000146 ± 1.3e-05 s⁻¹ |  |  |
| G32A U54G | 0.00257 ± 0.00027 s⁻¹ | 2600 ± 410 µM | 0.000536 ± 5.3e-05 s⁻¹ | 0.00121 ± 0.00012 s⁻¹ | 0.00207 ± 0.00024 s⁻¹ | 3.07e-05 ± 7.9e-06 s⁻¹ | 0.000162 ± 2.6e-05 s⁻¹ |
| C8U C61A | < 1e-05 s⁻¹ |  |  |  |  |  |  |
| A15G G40A | 0.0072 ± 0.0015 s⁻¹ | 1290 ± 400 µM | 0.00207 ± 0.00049 s⁻¹ | 0.00475 ± 0.00096 s⁻¹ | 0.00713 ± 0.002 s⁻¹ | 0.000316 ± 8.2e-05 s⁻¹ | 0.000754 ± 0.00016 s⁻¹ |
| G13U U31G | 0.000294 ± 0.0001 s⁻¹ |  | 4.24e-05 ± 8.5e-06 s⁻¹ | 0.000226 ± 2.7e-05 s⁻¹ | 0.000207 ± 2.6e-05 s⁻¹ |  | 2.89e-05 ± 1.3e-05 s⁻¹ |
| G37A U65C | 0.000108 ± 1.4e-05 s⁻¹ | 2300 ± 1100 µM |  | 6.65e-05 ± 1.7e-05 s⁻¹ | 8.61e-05 ± 1.1e-05 s⁻¹ |  |  |
| A14U U31G | 0.00512 ± 0.0017 s⁻¹ | 2230 ± 1100 µM | 0.00115 ± 0.0003 s⁻¹ | 0.00273 ± 0.0005 s⁻¹ | 0.00424 ± 0.0007 s⁻¹ | 0.000142 ± 2.1e-05 s⁻¹ | 0.000241 ± 5.5e-05 s⁻¹ |
| C50U U69A | 2.06e-05 ± 3.7e-06 s⁻¹ |  |  |  |  |  |  |
| A15G U57G | 9.24e-05 ± 1.1e-05 s⁻¹ | 2500 ± 1200 µM |  | 5.11e-05 ± 2.2e-05 s⁻¹ | 7.35e-05 ± 1.2e-05 s⁻¹ |  |  |
| C10U U54C | 2.54e-05 ± 7.7e-06 s⁻¹ |  |  | 3.09e-05 ± 1.2e-05 s⁻¹ |  | < 1e-05 s⁻¹ |  |
| A39G C58A | 0.00088 ± 0.00013 s⁻¹ | 4140 ± 1100 µM | 0.000129 ± 3e-05 s⁻¹ | 0.000275 ± 6.4e-05 s⁻¹ | 0.000642 ± 7.7e-05 s⁻¹ |  | 4.38e-05 ± 1.9e-05 s⁻¹ |
| G32U C70U | 0.00165 ± 0.00025 s⁻¹ | 5270 ± 1300 µM | 0.000182 ± 2.4e-05 s⁻¹ | 0.000464 ± 6.3e-05 s⁻¹ | 0.00111 ± 8.8e-05 s⁻¹ |  | 7.01e-05 ± 1.6e-05 s⁻¹ |
| A33G G38C | < 1e-05 s⁻¹ |  |  |  |  | < 1e-05 s⁻¹ | < 1e-05 s⁻¹ |

| Variant | kcat [1] | KM [2] | self-cleavage kobs at 640 uM GlcN6P [3] | self-cleavage kobs at 2500 uM GlcN6P [4] | self-cleavage kobs at 10000 uM GlcN6P [5] | self-cleavage kobs at 40 uM GlcN6P [6] | self-cleavage kobs at 160 uM GlcN6P [7] |
| --- | --- | --- | --- | --- | --- | --- | --- |
| C10U A39G | 3.18e-05 ± 4e-06 s⁻¹ |  |  | 4.09e-05 ± 2e-05 s⁻¹ | 2.93e-05 ± 8.6e-06 s⁻¹ | < 1e-05 s⁻¹ |  |
| A12G U69G | 7.83e-05 ± 2.6e-06 s⁻¹ | 285 ± 71 µM | 5.05e-05 ± 1.9e-05 s⁻¹ | 7.46e-05 ± 1.5e-05 s⁻¹ | 7.47e-05 ± 1.1e-05 s⁻¹ |  |  |
| C58G G63A | < 1e-05 s⁻¹ |  |  |  |  | < 1e-05 s⁻¹ |  |
| G40A C70G | 0.00031 ± 9.1e-05 s⁻¹ |  | 0.000105 ± 1.9e-05 s⁻¹ | 0.000394 ± 0.00012 s⁻¹ | 0.000244 ± 6.4e-05 s⁻¹ |  |  |
| C34G C68U | 1.7e-05 ± 5.3e-06 s⁻¹ |  |  |  |  |  |  |
| A14U A15C | 9.41e-05 ± 8.4e-06 s⁻¹ | 1880 ± 510 µM | 3.12e-05 ± 1.3e-05 s⁻¹ | 5.02e-05 ± 9.3e-06 s⁻¹ | 8.11e-05 ± 1.1e-05 s⁻¹ |  |  |
| G37U U47G | < 1e-05 s⁻¹ |  | < 1e-05 s⁻¹ |  |  | < 1e-05 s⁻¹ |  |
| C50A G51A | < 1e-05 s⁻¹ |  |  |  | < 1e-05 s⁻¹ |  |  |
| unchanged | 0.0712 ± 0.0079 s⁻¹ | 1990 ± 250 µM | 0.016 ± 0.00046 s⁻¹ | 0.0364 ± 0.0015 s⁻¹ | 0.0644 ± 0.0021 s⁻¹ | 0.00143 ± 1.7e-05 s⁻¹ | 0.00462 ± 0.00025 s⁻¹ |
| G66C C71U | 0.000716 ± 9.4e-05 s⁻¹ | 975 ± 220 µM | 0.000335 ± 5e-05 s⁻¹ | 0.000494 ± 9.6e-05 s⁻¹ | 0.000631 ± 0.00011 s⁻¹ |  | 9.54e-05 ± 1.7e-05 s⁻¹ |
| G32U G51A | < 1e-05 s⁻¹ |  |  |  |  | < 1e-05 s⁻¹ |  |
| U31G U45A A52G | 0.000908 ± 0.00012 s⁻¹ | 4890 ± 1500 µM |  | 0.000361 ± 0.00013 s⁻¹ | 0.000604 ± 8.7e-05 s⁻¹ |  |  |
| G43U C67A | 0.00389 ± 0.00036 s⁻¹ | 1310 ± 180 µM | 0.00129 ± 0.00023 s⁻¹ | 0.00219 ± 0.00043 s⁻¹ | 0.00371 ± 0.0005 s⁻¹ | 0.000122 ± 1.7e-05 s⁻¹ | 0.000392 ± 8.9e-05 s⁻¹ |
| G38U C61G | < 1e-05 s⁻¹ |  |  |  |  |  | < 1e-05 s⁻¹ |
| A12C U30C | 0.00413 ± 0.0012 s⁻¹ | 3850 ± 1500 µM | 0.000707 ± 9.2e-05 s⁻¹ | 0.00145 ± 0.0002 s⁻¹ | 0.00306 ± 0.00028 s⁻¹ | 6.11e-05 ± 7.7e-06 s⁻¹ | 0.000121 ± 2e-05 s⁻¹ |
| C34U G60A | < 1e-05 s⁻¹ |  | < 1e-05 s⁻¹ |  | < 1e-05 s⁻¹ |  |  |
| G51U U57G | < 1e-05 s⁻¹ |  |  |  | < 1e-05 s⁻¹ |  |  |
